Data reported in patent US20030219899A1.

What was measured:
Experiment in all cases: cell-based or functional assay
[1] = target: hCAR-tailless, truncation mutant of human CAR lacking the cytoplasmic domain (human) (UniProt P78310)
[2] = target: human coxsackie-adenovirus receptor (hCAR) (human) (UniProt P78310)
Ad3 receptor = target: Ad3 receptor

## Ad5 wild-type fiber, as displayed on Ad5luc1 (from UniProt P11818 1-581)
[1]
  Ad5luc1 luciferase activity (normalized to Ad5/3luc1) in U118-hCAR-tailless cells against parental U118 cells: 16 fold
[2]
  Ad5luc1 luciferase activity (normalized to Ad5/3luc1) in U118-hCAR cells against parental U118 cells: 11 fold

## mosaic adenovirus AdMSluc1 displaying both the Ad5 wild-type fiber and the Ad5/3 chimeric fiber on the same virion (from UniProt P11818 1-581; P11818 1-399; P04501 132-319)
Ad3 receptor
  luciferase gene transfer of AdMSluc1 to C33A cells in the presence of purified Ad3 knob: 100 µg/mL
[1]
  AdMSluc1 luciferase activity (normalized to Ad5/3luc1) in U118-hCAR-tailless cells against parental U118 cells: 7.5 fold
[2]
  AdMSluc1 luciferase activity (normalized to Ad5/3luc1) in U118-hCAR cells against parental U118 cells: 6 fold
  luciferase gene transfer of AdMSluc1 to C33A cells in the presence of purified Ad5 knob; lowest knob concentration with significant block: 0.1 µg/mL

## recombinant Ad3 fiber knob protein with N-terminal 6xHis tag expressed in E. coli (from UniProt P04501 119-319)
Ad3 receptor
  luciferase activity of Ad5/3luc1 on HeLa cells with 100 µg/ml Ad3 knob, against that without knob protein (% of activity without knob protein): < 5

## recombinant Ad5 fiber knob protein with N-terminal 6xHis tag expressed in E. coli (from UniProt P11818 387-581)
[2]
  luciferase activity of Ad5luc1 on HeLa cells with 100 µg/ml Ad5 knob, against that without knob protein (% of activity without knob protein): < 5
